The record followed here is PMC9424243, “Structure of a nucleosome-bound MuvB transcription factor complex reveals DNA remodelling” (Nature Communications, 2022).

As usually defined, the stoichiometry N is the number of molecules, sites or subunits per partner or assembly.

The labels stand for the following.
T1: B-MYB^FL(1–700) (human, UniProt P10244 1-700)
T1 construct: B-MYB, human, residues 1-700 (B-MYB^FL), codon optimised CDS; source: Hi-5 insect cells, expressed separately, purified separately as per the MuvB protocol
T1 sequence (looked up): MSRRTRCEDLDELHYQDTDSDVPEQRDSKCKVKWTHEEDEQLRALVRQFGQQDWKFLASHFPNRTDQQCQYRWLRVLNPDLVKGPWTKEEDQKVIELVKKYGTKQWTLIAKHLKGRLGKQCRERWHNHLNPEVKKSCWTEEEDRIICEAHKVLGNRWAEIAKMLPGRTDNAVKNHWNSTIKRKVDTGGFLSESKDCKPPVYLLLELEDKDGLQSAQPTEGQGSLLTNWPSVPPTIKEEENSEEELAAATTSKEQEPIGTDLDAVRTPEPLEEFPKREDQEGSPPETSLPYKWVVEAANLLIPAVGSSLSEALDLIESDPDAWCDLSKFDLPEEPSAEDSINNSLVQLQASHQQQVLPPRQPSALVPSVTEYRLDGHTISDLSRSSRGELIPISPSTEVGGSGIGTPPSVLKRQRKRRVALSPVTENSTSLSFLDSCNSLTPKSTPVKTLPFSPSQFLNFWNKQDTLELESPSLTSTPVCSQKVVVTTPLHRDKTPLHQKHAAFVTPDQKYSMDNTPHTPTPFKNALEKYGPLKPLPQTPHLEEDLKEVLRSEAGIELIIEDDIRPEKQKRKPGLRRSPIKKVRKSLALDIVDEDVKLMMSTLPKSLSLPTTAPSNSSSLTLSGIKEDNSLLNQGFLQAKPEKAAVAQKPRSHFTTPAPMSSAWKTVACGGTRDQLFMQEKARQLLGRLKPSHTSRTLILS

B1: LIN9^FL(1–542) (natural protein, human, UniProt Q5TKA1 1-542, looked up)
chain: MAELDQLPDESSSAKALVSLKEGSLSNTWNEKYSSLQKTPVWKGRNTSSAVEMPFRNSKRSRLFSDEDDRQINTRSPKRNQRVAMVPQKFTATMSTPDKKASQKIGFRLRNLLKLPKAHKWCIYEWFYSNIDKPLFEGDNDFCVCLKESFPNLKTRKLTRVEWGKIRRLMGKPRRCSSAFFEEERSALKQKRQKIRLLQQRKVADVSQFKDLPDEIPLPLVIGTKVTARLRGVHDGLFTGQIDAVDTLNATYRVTFDRTGLGTHTIPDYEVLSNEPHETMPIAAFGQKQRPSRFFMTPPRLHYTPPLQSPIIDNDPLLGQSPWRSKISGSDTETLGGFPVEFLIQVTRLSKILMIKKEHIKKLREMNTEAEKLKSYSMPISIEFQRRYATIVLELEQLNKDLNKVLHKVQQYCYELAPDQGLQPADQPTDMRRRCEEEAQEIVRHANSSTGQPCVENENLTDLISRLTAILLQIKCLAEGGDLNSFEFKSLTDSLNDIKSTIDASNISCFQNNVEIHVAHIQSGLSQMGNLHAFAANNTNRD
notes: LIN9, human, residues 1-542 (LIN9^FL), codon optimised CDS; Subunit of the co-expressed MuvB, MuvB^core and MMB^core complexes; only DIRP and tudor domains are built in PDB 7R1D; source: Hi-5 insect cells co-infected with MuvB baculoviruses; purified as part of the complex (Strep-Tactin, 3C protease, SEC)
B2: LIN52^FL(1–116) (natural protein, human, UniProt Q52LA3 1-112, looked up)
chain: MASPTDGTDLEASLLSFEKLDRASPDLWPEQLPGVAEFAASFKSPITSSPPKWMAEIERDDIDMLKELGSLTTANLMEKVRGLQNLAYQLGLDESREMTRGKFLNILEKPKK
notes: LIN52, human, residues 1-116 (LIN52^FL), codon optimised CDS; source: Hi-5 insect cells co-infected with MuvB baculoviruses; purified as part of the complex (Strep-Tactin, 3C protease, SEC)
B3: LIN54^short(515–749) (domain or fragment, human, UniProt Q6MZP7 515-749, looked up)
chain: SESASRPRKPCNCTKSLCLKLYCDCFANGEFCNNCNCTNCYNNLEHENERQKAIKACLDRNPEAFKPKIGKGKEGESDRRHSKGCNCKRSGCLKNYCECYEAKIMCSSICKCIGCKNFEESPERKTLMHLADAAEVRVQQQTAAKTKLSSQISDLLTRPTPALNSGGGKLPFTFVTKEVAEATCNCLLAQAEQADKKGKSKAAAERMILEEFGRCLMSVINSAGKAKSDPCAMNC
notes: LIN54, human, residues 515-749 (non-conserved N-terminus removed), codon optimised CDS; also called short version of LIN54; source: Hi-5 insect cells co-infected with MuvB baculoviruses; purified as part of the complex (Strep-Tactin, 3C protease, SEC)
B4: LIN37^FL(1–246) (natural protein, human, UniProt Q96GY3 1-246, looked up)
chain: MFPVKVKVEKSELEMAKARNQLDAVLQCLLEKSHMDRERLDEEAGKTPSDTHNKDCSIAATGKRPSARFPHQRRKKRREMDDGLAEGGPQRSNTYVIKLFDRSVDLAQFSENTPLYPICRAWMRNSPSVRERECSPSSPLPPLPEDEEGSEVTNSKSRDVYKLPPPTPPGPPGDACRSRIPSPLQPEMQGTPDDEPSEPEPSPSTLIYRNMQRWKRIRQRWKEASHRNQLRYSESMKILREMYERQ
notes: LIN37, human, residues 1-246 (LIN37^FL), codon optimised CDS; Carries the StrepII x2 tag by which the MuvB complexes were purified; the tag was removed with 3C protease before the final SEC; also called FL-LIN37; source: Hi-5 insect cells co-infected with MuvB baculoviruses; purified as part of the complex (Strep-Tactin, 3C protease, SEC)

The target in one assay is T1, B-MYB^FL(1–700). In words: cryo-EM structure; MMB^core:NCP167 mixed at 2.5:1, GraFix (glutaraldehyde, sucrose gradient); nucleosome at 3.3 Å, MuvB^HEAD 7.5 Å and MuvB^TAIL 8.7 Å, known structures fitted. The following applies: both partners purified.
For the assay “LIN37^FL(1–246)”, the target named is B4. In words: mass photometry; purified co-expressed complex diluted from 500 nM just before measurement; 20 mM HEPES pH 8, 150 mM NaCl, 0.5 mM TCEP. Conditions: both partners purified.
For the next assay, the target named is T2, RbBP4^FL(1–425) (human, UniProt Q09028 1-425).
T2 construct: Subunit of the co-expressed MuvB complexes in which the StrepII x2 tag stands on LIN37; source: Hi-5 insect cells co-infected with MuvB baculoviruses; purified as part of the complex (Strep-Tactin, 3C protease, SEC)
T2 sequence (Q09028 whole entry): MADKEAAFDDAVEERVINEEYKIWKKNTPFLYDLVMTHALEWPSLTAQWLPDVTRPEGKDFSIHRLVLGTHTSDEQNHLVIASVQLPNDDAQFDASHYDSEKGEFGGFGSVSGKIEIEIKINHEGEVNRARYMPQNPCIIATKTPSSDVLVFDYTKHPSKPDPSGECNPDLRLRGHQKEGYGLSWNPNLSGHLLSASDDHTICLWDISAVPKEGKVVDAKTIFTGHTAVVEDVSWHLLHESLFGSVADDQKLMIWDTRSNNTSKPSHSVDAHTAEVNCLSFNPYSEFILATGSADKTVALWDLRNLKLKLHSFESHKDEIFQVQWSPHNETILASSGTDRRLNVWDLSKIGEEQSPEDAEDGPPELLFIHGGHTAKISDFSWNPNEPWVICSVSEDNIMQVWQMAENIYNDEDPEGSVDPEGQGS
In words: cross-linking; DSSO cross-linking mass spectrometry of 28 μM purified MuvB complex, 10 min on ice, monomeric SEC fraction analysed. Conditions: both partners purified.

Assay [1] has as its target B1. The description is as above. Conditions: both partners purified.
For assay [2], the target named is B1. Briefly: SEC; subunits co-expressed in Hi-5 cells; complex held on Strep-Tactin by StrepII x2 on LIN37, washed with 1000 mM NaCl, tag cut with 3C, then SEC (S200 or Superose 6) in 20 mM HEPES pH 8, 150 mM NaCl, 0.5 mM TCEP. The following applies: partners not purified.

As for B1, the binding result with B-MYB^FL(1–700) is “binds”. For the same molecule, in the assay with LIN37^FL(1–246), the “stoichiometry N” value is 1.

With B2, in the assay with LIN37^FL(1–246), the “stoichiometry N” value is 1.

For the molecule B3, the binding result in the assay with RbBP4^FL(1–425) and in the assay with LIN9^FL(1–542) [1] was “binds” in each case. Also, the “stoichiometry N” value with LIN37^FL(1–246) came out at 1.

As for B4, the binding result in the assay with LIN9^FL(1–542) [2] is given as “binds”.
